The test system of this series is NC(=O)c1cccnc1. Nature of the series: Sir2 catalyzed base exchange with H4 N-terminal peptide. Conditions: other: 0 mM isonicotinamide. Type of series: biochemical, yeast.

For the substance “Yeast Sir2 (Saccharomyces cerevisiae S288C)”, the Michaelis constant (Km) stood at 120 µM.

As a reminder, the Km is the substrate concentration at which the rate is half of its maximum.

These data come from patent publication US8835467B2, “SIR2 regulation” (Albert Einstein College of Medicine of Yeshiva University, priority 2003, dated 2014).
